Test results taken from IntAct's records for PubMed 26822058.

B1: MARVEL domain-containing protein 2 (Homo sapiens), Q8N4S9 (parent)
chain: MSNDGRSRNRDRRYDEVPSDLPYQDTTIRTHPTLHDSERAVSADPLPPPPLPLQPPFGPDFYSSDTEEPAIAPDLKPVRRFVPDSWKNFFRGKKKDPEWDKPVSDIRYISDGVECSPPASPARPNHRSPLNSCKDPYGGSEGTFSSRKEADAVFPRDPYGSLDRHTQTVRTYSEKVEEYNLRYSYMKSWAGLLRILGVVELLLGAGVFACVTAYIHKDSEWYNLFGYSQPYGMGGVGGLGSMYGGYYYTGPKTPFVLVVAGLAWITTIIILVLGMSMYYRTILLDSNWWPLTEFGINVALFILYMAAAIVYVNDTNRGGLCYYPLFNTPVNAVFCRVEGGQIAAMIFLFVTMIVYLISALVCLKLWRHEAARRHREYMEQQEINEPSLSSKRKMCEMATSGDRQRDSEVNFKELRTAKMKPELLSGHIPPGHIPKPIVMPDYVAKYPVIQTDDERERYKAVFQDQFSEYKELSAEVQAVLRKFDELDAVMSRLPHHSESRQEHERISRIHEEFKKKKNDPTFLEKKERCDYLKNKLSHIKQRIQEYDKVMNWDVQGYS

Variants of: B1
Details: with plmn_human PLG

Row | effect of a mutation on the interaction | Variant
1 | decreasing interaction strength | K252A
2 | decreasing interaction strength | K217A
3 | disrupting interaction strength | K217A;K252A
